The target in experiment [1] is human legumain, activated asparaginyl-specific endopeptidase (AEP) (human) (UniProt Q99538). Put plainly: SEC; legumain incubated with hCE-K75A at a 1:4 molar ratio in 50 mM citric acid pH 4.0, 100 mM NaCl for 1 h at 37 °C, till complete RCL hydrolysis; Superdex 75 or S200 10/300 GL in 20 mM citric acid pH 4.0, 50 mM NaCl; peak fractions analysed by SDS-PAGE. For orientation: In gel filtration, larger molecules generally elute earlier.

Experiment [2] shares this target. Put plainly: enzyme inhibition kinetics (Ki from initial velocities, Morrison equation); hCE-K75A at 1.5 nM to 1.6 µM mixed with 50 µM AAN-AMC in 20 mM citric acid pH 5.5, 50 mM NaCl, 0.05% Tween-20; reaction started with 2 nM legumain; 10 min at 37 °C.

Sequence of UniProt Q99538 (Q99538 18-323): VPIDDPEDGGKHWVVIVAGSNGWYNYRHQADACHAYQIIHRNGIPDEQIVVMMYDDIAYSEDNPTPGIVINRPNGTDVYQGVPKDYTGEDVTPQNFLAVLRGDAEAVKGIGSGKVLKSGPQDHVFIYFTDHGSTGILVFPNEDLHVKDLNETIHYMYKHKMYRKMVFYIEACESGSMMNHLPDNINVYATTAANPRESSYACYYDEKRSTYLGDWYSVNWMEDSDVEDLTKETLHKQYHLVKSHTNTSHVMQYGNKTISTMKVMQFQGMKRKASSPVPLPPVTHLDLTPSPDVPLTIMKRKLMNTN

Consider “human cystatin M/E-K75A mutant, cleaved by legumain after P1-Asn39 on the reactive center loop (complex)”, for which the molar ratio of enzyme:inhibitor in the complex peak (enzyme:inhibitor) in experiment [1] stood at 1. The Ki is a measure of affinity in units of concentration, obtained from inhibition or displacement. With “human cystatin M/E-K75A mutant, intact (natural protein)”, the inhibition constant Ki in experiment [2] came to 0.0198 µM.

The values above are taken from article PMC9604545.
